Experimental data taken from patent publication US20230227565A1 (OSE IMMUNOTHERAPEUTICS, published 2023).

Assays:
[1] = biological target: T1, human CD127 (Interleukin-7 receptor subunit alpha) (human, UniProt P16871 21-459); assay: flow cytometry on ALL cell lines, 10 ug/mL antibody, fold change of PE geometric mean against isotype control
T1 construct: Endogenous CD127 on human ALL cell lines (HPB-ALL, DND41, 697, NALM6, REH) and on patient cells; no signal peptide limits are stated; also called IL7R-a; IL-7R
T1 sequence: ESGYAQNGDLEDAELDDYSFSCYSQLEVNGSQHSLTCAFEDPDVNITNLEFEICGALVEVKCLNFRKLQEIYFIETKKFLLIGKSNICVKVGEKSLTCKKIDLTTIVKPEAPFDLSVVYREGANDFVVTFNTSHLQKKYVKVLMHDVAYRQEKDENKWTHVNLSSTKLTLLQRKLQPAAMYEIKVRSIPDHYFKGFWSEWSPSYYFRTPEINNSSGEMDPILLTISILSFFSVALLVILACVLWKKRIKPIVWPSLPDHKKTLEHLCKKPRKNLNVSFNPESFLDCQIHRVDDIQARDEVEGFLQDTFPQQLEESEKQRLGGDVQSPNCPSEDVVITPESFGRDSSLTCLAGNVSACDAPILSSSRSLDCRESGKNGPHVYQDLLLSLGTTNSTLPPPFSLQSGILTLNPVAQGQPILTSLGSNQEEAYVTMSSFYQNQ

[2] = biological target: T2, recombinant hCD32a/FcγRIIa (human, UniProt P12318 36-218); assay: ELISA, recombinant FcγR immobilized at 2 µg/ml, detection with peroxidase-labeled anti-human IgG
T2 construct: Bought recombinant protein, immobilized on plastic at 2 µg/ml
T2 sequence (looked up): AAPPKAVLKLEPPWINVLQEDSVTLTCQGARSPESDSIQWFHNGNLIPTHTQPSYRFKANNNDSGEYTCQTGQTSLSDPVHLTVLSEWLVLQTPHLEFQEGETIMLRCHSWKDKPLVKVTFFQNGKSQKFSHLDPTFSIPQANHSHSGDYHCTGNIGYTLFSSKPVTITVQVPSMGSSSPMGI

[3] = biological target: T3, recombinant hCD16a/FcγRIIIa (human, UniProt P08637 17-208); assay: as above
T3 construct: Bought recombinant protein, immobilized on plastic at 2 µg/ml
T3 sequence (P08637 17-208 limits assumed): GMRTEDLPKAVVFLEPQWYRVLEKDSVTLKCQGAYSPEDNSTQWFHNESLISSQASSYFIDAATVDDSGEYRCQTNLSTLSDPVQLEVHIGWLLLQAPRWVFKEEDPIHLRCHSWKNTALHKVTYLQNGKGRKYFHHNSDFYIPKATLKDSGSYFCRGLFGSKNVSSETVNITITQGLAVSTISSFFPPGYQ

recombinant hCD64/FcγRI = biological target: T4, recombinant hCD64/FcγRI (human, UniProt P12314 16-288); assay: as above
T4 construct: Bought recombinant protein, immobilized on plastic at 2 µg/ml
T4 sequence (P12314 16-288 limits assumed): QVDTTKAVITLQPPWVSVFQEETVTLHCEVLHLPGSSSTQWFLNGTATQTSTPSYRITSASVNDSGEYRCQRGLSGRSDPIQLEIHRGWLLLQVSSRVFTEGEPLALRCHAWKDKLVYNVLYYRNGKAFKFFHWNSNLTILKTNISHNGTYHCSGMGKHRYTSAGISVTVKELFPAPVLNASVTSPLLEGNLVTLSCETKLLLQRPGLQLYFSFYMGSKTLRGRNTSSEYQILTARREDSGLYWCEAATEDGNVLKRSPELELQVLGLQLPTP

B1: N13B2-hVL6 (antibody, human IgG4 S228P, kappa)
heavy: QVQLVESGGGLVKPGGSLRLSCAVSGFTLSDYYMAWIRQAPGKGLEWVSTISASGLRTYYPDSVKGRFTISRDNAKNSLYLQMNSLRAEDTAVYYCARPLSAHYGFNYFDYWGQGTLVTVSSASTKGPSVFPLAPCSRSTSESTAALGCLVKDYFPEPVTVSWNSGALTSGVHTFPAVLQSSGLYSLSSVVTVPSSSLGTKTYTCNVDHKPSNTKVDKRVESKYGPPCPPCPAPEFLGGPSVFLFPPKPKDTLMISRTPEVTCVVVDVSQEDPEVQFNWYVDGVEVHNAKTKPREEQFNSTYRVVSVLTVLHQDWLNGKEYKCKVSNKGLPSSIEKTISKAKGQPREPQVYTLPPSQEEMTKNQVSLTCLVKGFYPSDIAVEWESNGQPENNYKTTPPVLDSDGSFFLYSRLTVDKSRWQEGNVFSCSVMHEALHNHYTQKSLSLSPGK
light: DIQMTQSPSSLSASVGDRVTITCRTSEDIYQGLAWYQQKPGKAPKLLLYSANTLHIGVPSRFSGSGSGTDYTLTISSLQPEDFATYYCQQYYDYPLAFGGGTKVEIKRTVAAPSVFIFPPSDEQLKSGTASVVCLLNNFYPREAKVQWKVDNALQSGNSQESVTEQDSKDSTYSLSSTLTLSKADYEKHKVYACEVTHQGLSSPVTKSFNRGEC
notes: Humanized antagonist anti-CD127 IgG4 antibody; also called NB13B2-hVL6; N13B6-hVL6; copies: 2 + 2
B1: binds [1]; no binding [2]; no binding [3]. B1: no binding (recombinant hCD64/FcγRI).
